Measurements published in patent publication US20140221622A1 (AbbVie / Abbott, published 2014).
Residue numbers refer to the chain shown, from its start. Like-named read-outs stand apart in the source and are kept apart here.

Key:
[1] = target: T1, c-Met on tumor cell lines (A549, IM-95, SNU-5, SNU-620) (UniProt P08581 25-1390, limits assumed); test: cell-based or functional assay
[2] = target: T2, Neonatal Fc receptor (FcRn) on CHO-FcRnGPI cells; test: flow cytometry on CHO-FcRnGPI cells, pH 6.4
T2 construct: whole, on cells; nothing more is said; also called FcRn receptors
T2 sequence (P55899 24-297, chain 1 of 2): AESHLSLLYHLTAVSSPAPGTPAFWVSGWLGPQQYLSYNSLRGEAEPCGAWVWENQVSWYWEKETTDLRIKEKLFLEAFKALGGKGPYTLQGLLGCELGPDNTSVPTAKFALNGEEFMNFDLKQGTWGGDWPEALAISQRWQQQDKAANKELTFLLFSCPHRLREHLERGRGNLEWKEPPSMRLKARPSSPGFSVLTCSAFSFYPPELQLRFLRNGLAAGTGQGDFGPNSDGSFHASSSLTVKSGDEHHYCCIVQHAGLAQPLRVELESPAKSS
T2 sequence (P61769 21-119, chain 2 of 2, further chain): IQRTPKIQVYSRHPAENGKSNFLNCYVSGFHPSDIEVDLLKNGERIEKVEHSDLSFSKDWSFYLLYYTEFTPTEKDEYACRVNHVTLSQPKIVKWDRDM
Experimental: CHO-FcRnGPI cells (Stable FcRn receptor expressor) and CHO-pBudl l cells (non-FcRn expressor) were aliquotted into 96-well plates at 1×10⁵ cells/well. Cells were resuspended in 150 μl FACS buffer. […] 30 μl of diluted antibody or half-Ig binding protein was added to each well and incubated on ice for 1 hour. Following 2 washes with FACS buffer, 50 μl of secondary antibody R-phycoerythrin-conjugated AfiniPure F(ab′)2 Fragment goat anti-human IgG (Jackson ImmunoResearch, West Grove, Pa.) diluted in FACS buffer pH 6.4 or pH7.4 was added. The mixture was incubated for 30 min on ice. The cells were resuspended in 100 μl PBS with 1% FBS (Invitrogen, Carlsbad, Calif.) and 2 μg/ml propidium iodide (Invitrogen, Carlsbad, Calif.) of the corresponding pH. Final FACS data were acquired on a FACScan (Becton Dickinson, Franklin Lakes, N.J.).

[3] = target: T3, rhcMetECD (cMet extracellular domain) (human, UniProt P08581 25-932); test: SPR (Biacore 3000), apparent stoichiometry at saturating rhcMetECD
T3 construct: extracellular domain; also called cMet antigen
T3 sequence (P08581 25-932): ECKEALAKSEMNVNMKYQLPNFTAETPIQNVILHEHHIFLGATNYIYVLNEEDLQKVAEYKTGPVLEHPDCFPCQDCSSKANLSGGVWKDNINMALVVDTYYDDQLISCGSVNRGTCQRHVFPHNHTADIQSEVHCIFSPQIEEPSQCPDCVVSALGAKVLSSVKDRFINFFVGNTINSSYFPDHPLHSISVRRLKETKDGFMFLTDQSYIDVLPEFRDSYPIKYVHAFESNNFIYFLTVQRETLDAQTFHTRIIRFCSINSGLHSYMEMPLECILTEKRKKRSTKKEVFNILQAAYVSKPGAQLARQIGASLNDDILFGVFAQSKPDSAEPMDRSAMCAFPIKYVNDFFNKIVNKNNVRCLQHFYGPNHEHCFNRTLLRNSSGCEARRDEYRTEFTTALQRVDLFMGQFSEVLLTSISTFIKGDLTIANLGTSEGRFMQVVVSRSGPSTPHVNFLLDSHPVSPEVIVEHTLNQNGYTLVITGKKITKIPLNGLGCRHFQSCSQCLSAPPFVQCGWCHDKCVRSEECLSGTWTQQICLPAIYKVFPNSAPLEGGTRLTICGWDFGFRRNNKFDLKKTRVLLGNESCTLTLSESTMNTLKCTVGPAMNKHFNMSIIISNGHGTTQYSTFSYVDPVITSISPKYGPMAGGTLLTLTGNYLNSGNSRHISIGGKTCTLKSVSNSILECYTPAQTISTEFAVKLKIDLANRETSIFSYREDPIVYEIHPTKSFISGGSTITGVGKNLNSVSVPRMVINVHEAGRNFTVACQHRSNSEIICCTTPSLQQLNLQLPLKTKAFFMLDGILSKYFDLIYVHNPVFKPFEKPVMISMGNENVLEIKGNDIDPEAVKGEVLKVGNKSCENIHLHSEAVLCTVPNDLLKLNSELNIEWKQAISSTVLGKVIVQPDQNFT
Text: Unreacted moieties on the biosensor surface were blocked with ethanolamine. Modified carboxymethyl dextran surface in flowcell 2 and 4 was used as a reaction surface. Unmodified carboxymethyl dextran without goat anti-human IgG in flow cell 1 and 3 was used as the reference surface. For kinetic analysis, rate equations derived from the 1:1 Langmuir binding model were fitted simultaneously to association and dissociation phases of all ten injections (using global fit analysis) using the Bioevaluation 4.0.1 software. Purified MBody samples were diluted in HEPES-buffered saline for capture across goat anti-human IgG Fc specific reaction surfaces and injected over reaction matrices at a flow rate of 5 ml/min. […] The equilibrium dissociation constant (M) of the reaction between MBody and rhcMetECD was then calculated from the kinetic rate constants by the following formula: KD=koff/kon. Aliquots of rhcMetECD samples were also simultaneously injected over a blank reference and reaction CM surface to record and subtract any nonspecific binding background to eliminate the majority of the refractive index change and injection noise. […] The apparent stoichiometry of the captured MBody-rhcMetECD complex was calculated under saturating binding conditions (steady-state equilibrium) using the following formula:

biotin-labeled cMet [4] = target: T4, biotin-labeled cMet (UniProt P08581 25-932, limits assumed, biotin label (site not stated)); test: ELISA: antibody captured on anti-IgG Fc coat, bound biotin-labeled cMet detected with streptavidin-HRP
T4 construct: also called cMet antigen
T4 sequence (P08581 25-932 limits assumed): as the sequence (P08581 25-932) above

biotin-labeled cMet [5] = target: T4, biotin-labeled cMet; test: as above; remark: listed apart in the source
Experimental: (§1) cMet binding ELISA was performed to characterize the antigen binding property of cMet antibodies. 96-well ELISA plates were coated with 100 μl/well 5 μg/ml anti-mouse IgG Fc in PBS at 4° C. overnight. After 3 washes with PBS/0.05% Tween®20, the plates were blocked with 5% milk in PBS for 1 hour at room temperature. After another 3 washes with PBS/0.05% Tween®20, 100 μl cMet antibody was added to each well followed by an incubation of 1 hour at room temperature. Binding biotin-labeled cMet was detected by Streptavidin-horseradish peroxidase (KPL, Gaithersburg, Md.) and tetramethylbenzidine (Thermo Scientific, Rockford, Ill.). Final absorbances were acquired at 450 nm after stopping the reactions with 2 mol/L H₂SO₄. […] The terms EC₅₀ and IC₅₀ may be used interchangeably in this Example to reflect the concentration of the antibody which induces a response halfway between the baseline and the maximum after a specified exposure time.

[6] = target: T3, rhcMetECD (cMet extracellular domain); test: SPR (Biacore 3000), binding protein captured on anti-human IgG Fc, rhcMetECD injected, 1:1 Langmuir fit, 25 C
Experimental: The kinetics of MBody binding to rhcMetECD (extracellular domain) was determined by surface plasmon resonance-based measurements with a Biacore 3000 instrument (Biacore AB, Uppsala, Sweden) using HBS-EP (10 mM HEPES, pH 7.4, 150 mM NaCl, 3 mM EDTA, and 0.005% surfactant P20) at 25° C. […] Approximately, 5000 RU of goat anti-human IgG Fcγ fragment specific polyclonal antibody (Pierce Biotechnology Inc, Rockford, Ill.) diluted in 10 mM sodium acetate (pH 4.5) was directly immobilized across a CM5 research grade biosensor chip using a standard amine coupling kit according to manufacturer's instructions and procedures at 25 mg/ml. Unreacted moieties on the biosensor surface were blocked with ethanolamine. Modified carboxymethyl dextran surface in flowcell 2 and 4 was used as a reaction surface. Unmodified carboxymethyl dextran without goat anti-human IgG in flow cell 1 and 3 was used as the reference surface. For kinetic analysis, rate equations derived from the 1:1 Langmuir binding model were fitted simultaneously to association and dissociation phases of all ten injections (using global fit analysis) using the Bioevaluation 4.0.1 software. Purified MBody samples were diluted in HEPES-buffered saline for capture across goat anti-human IgG Fc specific reaction surfaces and injected over reaction matrices at a flow rate of 5 ml/min. […] The equilibrium dissociation constant (M) of the reaction between MBody and rhcMetECD was then calculated from the kinetic rate constants by the following formula: KD=koff/kon. Aliquots of rhcMetECD samples were also simultaneously injected over a blank reference and reaction CM surface to record and subtract any nonspecific binding background to eliminate the majority of the refractive index change and injection noise. Surfaces were regenerated with two subsequent 25 ml injections of 10 mM Glycine (pH 1.5) at a flow rate of 5 ml/min.

[7] = target: T1, c-Met on tumor cell lines (A549, IM-95, …); test: cell-based or functional assay; remark: listed apart in the source
biotin-labeled cMet [8] = target: T4, biotin-labeled cMet; test: c-Met binding ELISA by the method of Example 1.3
Experimental: as §1

[9] = target: T5, CD40 on CD40-overexpressing HEK 293 cells (UniProt P25942 21-277, limits assumed); test: cell-based or functional assay
T5 sequence (P25942 21-277 limits assumed): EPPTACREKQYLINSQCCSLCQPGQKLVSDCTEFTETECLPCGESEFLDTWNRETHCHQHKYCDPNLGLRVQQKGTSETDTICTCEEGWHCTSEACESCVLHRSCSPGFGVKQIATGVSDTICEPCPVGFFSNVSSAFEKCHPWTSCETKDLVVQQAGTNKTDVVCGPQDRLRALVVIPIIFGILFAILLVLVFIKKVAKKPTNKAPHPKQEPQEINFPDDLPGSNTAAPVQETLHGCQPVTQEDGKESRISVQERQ

[10] = target: T5, CD40 on CD40-overexpressing HEK 293 …; test: flow cytometry on CD40-overexpressing HEK 293 cells, APC anti-human Fc
Experimental: Followed by 30 min incubation on ice with an APC-conjugated anti-human Fc antibody. Cells then are washed twice and resuspended in PBS/FBS. Fluorescence was measured using a Becton Dickinson FACSCalibur (Becton Dickinson, San Jose, Calif.).

[11] = target: T5, CD40 on CD40-overexpressing HEK 293 …; test: as above; remark: listed apart in the source
Experimental: First, the CD40-overexpressing HEK 293 cells were stained with hIgG1 or testing material at a range of 0.01 μg/ml to 10 μg/ml. Followed by 30 min incubation on ice with an APC-conjugated anti-human Fc antibody. Cells then are washed twice and resuspended in PBS/FBS. Fluorescence was measured using a Becton Dickinson FACSCalibur (Becton Dickinson, San Jose, Calif.).
The binding of proteins were examined by FACS.

[12] = target: EGFR on EGFR-expressing target cells (UniProt P00533 25-1210, limits assumed); test: cell-based or functional assay
CD3 on Jurkat cells = target: T6, CD3 on Jurkat cells (UniProt P07766 23-207); test: flow cytometry on Jurkat cells, Alexa Fluor 488 anti-human IgG Fc
T6 construct: whole, on cells; CD3 is a multi-chain complex; also called CD3 antigen
Experimental: 0.5×10⁶ of Jurkat or NCI-N87 cells were washed with FACS buffer (1% BSA/PBS) and resuspended in 50 ul of FACS buffer. mAbs or Fab-bodies were prepared in 50 ul of FACS buffer and mixed with cells and incubated at 4° C. for 1 hr.

T1 sequence (P08581 25-1390 limits assumed): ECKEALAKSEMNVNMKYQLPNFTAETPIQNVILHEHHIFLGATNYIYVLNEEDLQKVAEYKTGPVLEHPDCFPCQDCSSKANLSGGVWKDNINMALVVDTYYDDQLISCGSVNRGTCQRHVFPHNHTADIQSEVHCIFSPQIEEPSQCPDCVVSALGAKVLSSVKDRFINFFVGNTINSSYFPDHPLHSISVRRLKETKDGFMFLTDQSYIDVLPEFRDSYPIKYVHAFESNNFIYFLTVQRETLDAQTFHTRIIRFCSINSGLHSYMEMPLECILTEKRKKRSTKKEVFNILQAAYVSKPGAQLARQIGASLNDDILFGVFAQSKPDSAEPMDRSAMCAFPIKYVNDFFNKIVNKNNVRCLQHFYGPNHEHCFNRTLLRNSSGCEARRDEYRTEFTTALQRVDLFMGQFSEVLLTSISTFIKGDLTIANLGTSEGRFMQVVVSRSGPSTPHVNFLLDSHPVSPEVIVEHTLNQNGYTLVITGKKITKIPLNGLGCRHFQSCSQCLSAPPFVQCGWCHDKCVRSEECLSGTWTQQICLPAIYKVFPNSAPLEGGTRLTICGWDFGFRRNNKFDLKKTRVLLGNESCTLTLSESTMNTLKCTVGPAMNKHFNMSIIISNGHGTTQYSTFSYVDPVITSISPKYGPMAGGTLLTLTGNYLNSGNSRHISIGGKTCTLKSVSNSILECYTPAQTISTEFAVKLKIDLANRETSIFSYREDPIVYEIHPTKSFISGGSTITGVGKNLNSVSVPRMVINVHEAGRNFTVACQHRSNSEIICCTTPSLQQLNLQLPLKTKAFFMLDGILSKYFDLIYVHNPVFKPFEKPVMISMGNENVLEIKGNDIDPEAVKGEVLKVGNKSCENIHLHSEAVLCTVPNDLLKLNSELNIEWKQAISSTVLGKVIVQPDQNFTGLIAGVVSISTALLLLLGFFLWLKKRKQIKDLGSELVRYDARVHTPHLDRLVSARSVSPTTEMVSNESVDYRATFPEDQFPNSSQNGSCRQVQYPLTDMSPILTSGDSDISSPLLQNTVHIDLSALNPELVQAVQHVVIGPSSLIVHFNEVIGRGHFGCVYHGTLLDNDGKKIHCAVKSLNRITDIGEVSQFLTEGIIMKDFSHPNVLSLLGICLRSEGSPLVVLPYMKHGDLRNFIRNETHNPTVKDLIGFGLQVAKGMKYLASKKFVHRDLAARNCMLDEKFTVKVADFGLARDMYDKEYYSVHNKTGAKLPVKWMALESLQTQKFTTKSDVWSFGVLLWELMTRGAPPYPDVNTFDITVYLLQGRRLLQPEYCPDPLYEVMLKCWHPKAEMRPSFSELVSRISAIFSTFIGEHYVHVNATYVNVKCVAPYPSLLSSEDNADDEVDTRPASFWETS

B1: cMet Ig (anti-cMet antibody, 5D5 variable domains on human Cg1/Ck) (antibody, human IgG1, kappa)
heavy: not shown
light: DFMMSQSPSSLTVSVGEKVTVSCKSSQSLLYTSSQKNYLAWYQQKPGQSPKLLIYWASTRESGVPDRFTGSGSGTDFTLTITSVKADDLAVYYCQQYYAYPWTFGGGTKLELKRTVAAPSVFIFPPSDEQLKSGTASVVCLLNNFYPREAKVQWKVDNALQSGNSQESVTEQDSKDSTYSLSSTLTLSKADYEKHKVYACEVTHQGLSSPVTKSFNRGEC
notes: VH/VL cloned from hybridoma HB-11895 (5D5.11.6) into pHybE-hCg1,z,non-a and pHybE-hCk; also called cMet mAb; parental cMet mAb
Inhibition of IM95 Proliferation, EC50 [1]: 0.17 mg/L
EC50 [2]: 53.3 mg/L
Stoichiometry [3]: 1.51
EC50 (biotin-labeled cMet [4]): 0.3 nM
EC50 (biotin-labeled cMet [5]): 0.35 nM
Kd [6]: 2.67 nM
koff [6]: 0.000214 s⁻¹
kon [6]: 80300 M⁻¹ s⁻¹

B2: cMet mAb KH (cMet mAb with knobs-into-holes mutations) (antibody, human IgG1, kappa)
heavy 1: not shown
heavy 2: not shown
light: B1 light
EC50 [2]: 44.4 mg/L
Stoichiometry [3]: 1.53
Kd [6]: 2.08 nM
koff [6]: 0.000195 s⁻¹
kon [6]: 93600 M⁻¹ s⁻¹

B3: cMet AA6 KH MBody (antibody, human IgG1, kappa)
heavy 1: not shown
heavy 2: not shown
light: B1 light
Inhibition of IM95 Proliferation, EC50 [1]: 1.86 mg/L
EC50 [2]: 51.1 mg/L

B4: cMet AA1 Ig (antibody, human IgG1, kappa, V domains shown)
VH: QVQLQQSGPELVRPGASVKMSCRASGYTFTSYWLHWVKQRPGQGLEWIGMIDPSNSDTRFNPNFKDKATLNVDRSSNTAYMLLSSLTSADSAVYYCAAYGSYVSPLDYWGQGTSVTVSS
VL: DFMMSQSPSSLTVSVGEKVTVSCKSSQSLLYTSSQKNYLAWYQQKPGQSPKLLIYWASTRESGVPDRFTGSGSGTDFTLTITSVKADDLAVYYCQQYYAYPWTFGGGTKLELKR
notes: HC CDR3 alanine-scanning mutant paired with the common cMet LC; also called Anti-cMet-AA1
EC50 (biotin-labeled cMet [4]): 7.25 nM

B5: cMet AA3 HK MBody (antibody, human IgG1, kappa)
heavy 1: not shown
heavy 2: not shown
light: B1 light
Inhibition of IM95 Proliferation, EC50 [1]: 1.6 mg/L
EC50 [2]: 34.8 mg/L

B6: cMet AA2 HK MBody (antibody, human IgG1, kappa)
heavy 1: not shown
heavy 2: not shown
light: B1 light
Inhibition of IM95 Proliferation, EC50 [1]: 0.23 mg/L
EC50 [2]: 31.5 mg/L

B7: cMet AA3 KH MBody (antibody, human IgG1, kappa)
heavy 1: not shown
heavy 2: not shown
light: B1 light
Inhibition of IM95 Proliferation, EC50 [1]: 2.14 mg/L
EC50 [2]: 38 mg/L

B8: cMet AA6 HK MBody (antibody, human IgG1, kappa)
heavy 1: not shown
heavy 2: not shown
light: B1 light
Inhibition of IM95 Proliferation, EC50 [1]: 2.73 mg/L
EC50 [2]: 47.1 mg/L

B9: cMet AA4 Ig (antibody, human IgG1, kappa, V domains shown)
VH: B4 VH with A98T, V103A, S104A
VL: B4 VL
notes: HC CDR3 alanine-scanning mutant paired with the common cMet LC; also called Anti-cMet-AA4
EC50 (biotin-labeled cMet [4]): 1.24 nM

B10: Anti-human c-Met antibody 5D5 (antibody, V domains shown)
VH: B4 VH with A98T
VL: B4 VL
notes: VH and VL are those cloned from hybridoma HB-11895 (5D5.11.6); also called bivalent antibody 5D5
Inhibition of HGF-induced phospho-c-Met IC50 (A549 cells) [7]: 1.4 nM
Inhibition of IM-95 proliferation (HGF-dependent) IC50 [7]: 5.8 nM
Inhibition of SNU-5 proliferation (constitutively active c-Met) IC50 [7]: > 600 nM
EC50 (biotin-labeled cMet [8]): 0.08 nM

B11: cMet AA5 Ig (antibody, human IgG1, kappa, V domains shown)
VH: B4 VH with A98T
VL: B4 VL
notes: the intended AA5 mutation is not visible; also called Anti-cMet-AA5
EC50 (biotin-labeled cMet [4]): 1.81 nM

B12: 5D5 Fab (Fab, V domains shown)
VH: B4 VH with A98T
VL: B4 VL
Inhibition of HGF-induced phospho-c-Met IC50 (A549 cells) [7]: 5.9 nM
Inhibition of IM-95 proliferation (HGF-dependent) IC50 [7]: 55.7 nM
Inhibition of SNU-5 proliferation (constitutively active c-Met) IC50 [7]: > 600 nM
Inhibition/induction of SNU-620 proliferation (constitutively active c-Met but still HGF-inducible) IC50 [7]: > 600 nM

B13: Anti-CD40 Ig (21.4.1 variable domains on human Cg1/Ck) (antibody, human IgG1, kappa)
heavy: not shown
light: DIQMTQSPSSVSASVGDRVTITCRASQGIYSWLAWYQQKPGKAPNLLIYTASTLQSGVPSRFSGSGSGTDFTLTISSLQPEDFATYYCQQANIFPLTFGGGTKVEIKRTVAAPSVFIFPPSDEQLKSGTASVVCLLNNFYPREAKVQWKVDNALQSGNSQESVTEQDSKDSTYSLSSTLTLSKADYEKHKVYACEVTHQGLSSPVTKSFNRGEC
agonist activity, NFkB-SEAP reporter in HEK 293 cells, EC50 [9]: 0.12 mg/L
EC50 [10]: 0.24 mg/L
EC50 [11]: 0.084 mg/L

B14: Anti-CD40 YNV (antibody, human IgG1, kappa, V domains shown)
VH: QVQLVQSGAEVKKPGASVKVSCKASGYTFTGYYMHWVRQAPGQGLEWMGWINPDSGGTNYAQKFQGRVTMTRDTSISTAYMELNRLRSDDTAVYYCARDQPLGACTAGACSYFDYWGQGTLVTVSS
VL: DIQMTQSPSSVSASVGDRVTITCRASQGIYSWLAWYQQKPGKAPNLLIYTASTLQSGVPSRFSGSGSGTDFTLTISSLQPEDFATYYCQQANIFPLTFGGGTKVEIKR
binding result [11]: no binding (tested: 0.01 µg/ml to 10 µg/ml)

B15: Anti-CD40 VA (antibody, human IgG1, kappa, V domains shown)
VH: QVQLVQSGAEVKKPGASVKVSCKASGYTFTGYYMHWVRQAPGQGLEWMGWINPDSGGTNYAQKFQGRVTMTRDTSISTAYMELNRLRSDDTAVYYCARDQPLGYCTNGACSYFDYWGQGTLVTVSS
VL: B14 VL
EC50 [11]: 0.125 mg/L

B16: Anti-CD40 YA (antibody, human IgG1, kappa, V domains shown)
VH: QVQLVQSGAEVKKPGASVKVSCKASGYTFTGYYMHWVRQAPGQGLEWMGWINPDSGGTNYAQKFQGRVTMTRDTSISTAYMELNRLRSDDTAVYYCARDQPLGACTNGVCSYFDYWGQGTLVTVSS
VL: B14 VL
EC50 [11]: 0.095 mg/L

B17: Anti-CD40 NA (antibody, human IgG1, kappa, V domains shown)
VH: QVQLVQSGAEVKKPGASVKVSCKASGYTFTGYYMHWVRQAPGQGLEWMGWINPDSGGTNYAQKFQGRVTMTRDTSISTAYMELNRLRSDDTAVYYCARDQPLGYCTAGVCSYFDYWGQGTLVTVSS
VL: B14 VL
EC50 [11]: 2.12 mg/L

B18: Anti-CD40 LYNV (antibody, human IgG1, kappa, V domains shown)
VH: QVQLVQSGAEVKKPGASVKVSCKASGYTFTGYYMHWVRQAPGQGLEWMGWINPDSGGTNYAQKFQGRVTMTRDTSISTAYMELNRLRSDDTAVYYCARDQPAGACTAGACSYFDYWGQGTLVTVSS
VL: B14 VL
binding result [11]: no binding (tested: 0.01 µg/ml to 10 µg/ml)

B19: Anti-CD40 LA (antibody, human IgG1, kappa, V domains shown)
VH: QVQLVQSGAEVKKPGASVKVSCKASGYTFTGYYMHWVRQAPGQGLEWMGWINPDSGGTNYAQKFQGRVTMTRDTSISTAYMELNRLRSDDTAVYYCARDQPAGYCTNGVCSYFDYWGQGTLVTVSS
VL: B14 VL
EC50 [11]: 0.189 mg/L

B20: MetMAb1 (antibody, V domains shown)
VH: EVQLVESGGGLVQPGGSLRLSCAASGYTFTSYWLHWVRQAPGKGLEWVGMIDPSNSDTRFNPNFKDRFTISADTSKNTAYLQMNSLRAEDTAVYYCATYRSYVTPLDYWGQGTLVTVSS
VL: DIQMTQSPSSLSASVGDRVTITCKSSQSLLYTSSQKNYLAWYQQKPGKAPKLLIYWASTRESGVPSRFSGSGSGTDFTLTISSLQPEDFATYYCQQYYAYPWTFGQGTKVEIKR
notes: also called monovalent c-Met antibody MetMAb1
Inhibition of HGF-induced phospho-c-Met IC50 (A549 cells) [7]: 3.8 nM
Inhibition of IM-95 proliferation (HGF-dependent) IC50 [7]: 17.4 nM
Inhibition of SNU-5 proliferation (constitutively active c-Met) IC50 [7]: > 600 nM
Inhibition/induction of SNU-620 proliferation (constitutively active c-Met but still HGF-inducible) IC50 [7]: > 600 nM
EC50 (biotin-labeled cMet [8]): 0.27 nM

B21: anti-cMet h5D5 Fab-body (antibody, human IgG1, kappa, V domains shown)
VH: B20 VH
VL: B20 VL
notes: Monovalent Fab-Fc heterodimer: LFc chain (VL-CL-linker-Fc knob) and HFc chain (VH-CH1-linker-Fc hole)
Inhibition of HGF-induced phospho-c-Met IC50 (A549 cells) [7]: 2.6 nM
Inhibition of IM-95 proliferation (HGF-dependent) IC50 [7]: 12.8 nM
Inhibition of SNU-5 proliferation (constitutively active c-Met) IC50 [7]: 4.1 nM
Inhibition/induction of SNU-620 proliferation (constitutively active c-Met but still HGF-inducible) IC50 [7]: > 600 nM
EC50 (biotin-labeled cMet [8]): 0.24 nM

B22: DB001 DVD-Ig (CD3 and EGFR) (bispecific antibody)
VH: QVQLQESGPGLVKPSQTLSLTCTVSGYSISSDFAWNWIRQPPGKGLEWMGYISYSGNTRYQPSLKSRITISRDTSKNQFFLKLNSVTAADTATYYCVTAGRGFPYWGQGTLVTVSSASTKGPEVQLVESGGGLVQPGGSLRLSCAASGFTFSTYAMNWVRQAPGKGLEWVGRIRSKYNNYATYYADSVKDRFTISRDDSKNTAYLQMNSLRAEDTAVYYCTRHGNFGNSYVSWFAYWGQGTLVTVSS
VL: DIQMTQSPSSMSVSVGDRVTITCHSSQDINSNIGWLQQKPGKSFKGLIYHGTNLDDGVPSRFSGSGSGTDYTLTISSLQPEDFATYYCVQYAQFPWTFGGGTKLEIKTVAAPSVFIFPPDAQVTQSPSSLSASVGDRVTITCRSSTGAVTTSNYANWVQEKPGKLFKGLIGGTNKRAPGVPSRFSGSGSGTDATLTISSLQPEDFATYFCALWYSNLWVFGGGTKVEIKR
notes: also called parental DVD-Ig
Redirected Cytotoxicity (rCTL), EC50 [12]: 1.5 nM
EC50 (CD3 on Jurkat cells): 74 nM
